Test results: the DeepSol protein solubility set

Test: soluble on expression in E. coli; label from the status in PepcDB or PDB records

| Sequence | soluble on expression in E. coli |
| --- | --- |
| MLYDKSLEKDNCGFGLIAHIEGEPSHKVVRTAIHALARMQHRGAILADGKTGDGCGLLLQKPDRFFRIVAEERGWRLAKNYAVGMIFLNKDPELAAASRHIVEEELQQETLSIVGWRDVPTNEGVLGEIALSSLPRIEQIFVNAPAGWRPRDMERRLFIARRRIEKRLQDDKDFYVCSLSNLVNIYKGLCMPADLPRFYLDLADLRLESAICLFHQRFSTNTVPRWPLAQPFRYLAHNGEINTITGNRQWARARTYKFQTPLIPDLQSAAPFVNETGSDSSSLDNMLELLLAGGMDIIRAMRLLVPPAWQNNPDMDQDLRAFFDFNSMHMEPWDGPAGIVMSDGRFAACNLDRNGLRPARYVITKDKLITCASEVGIWDYQPDEVVEKGRVGPGELMVIDTRGGRILHSAETDDDLKSRHPYKEWMEKNVRRLVPFEELPDEEVGSRELDDDLLASYQKQFNYSAEELDSVIRVLGENGQEAVGSMGDDTPFAVLSSQPRIIYDYFRQQFAQVTNPPIDPLREAHVMSLATSIGREMNVFCEAEGQAHRLSFKSPILLYSDFKQLTTMKEEHYRADRLDITFDVTETTLNATVKALCDKAEQMVRNGTVLLVLSDRNIGKNRLPVPAPMAVGAVQTRLVEQSLRCDANIIVETGSARDPHHFAVLLGFGATAIYPYLAYETLGRLIDTQAIAKNYRTVMQNYRNGINKGLYKIMSKMGISTIASYRCSKLFEAVGLHDDVVNLCFQGVVSRIGGASFDDFQQDLLNLSKRAWLARKPISPGGLLKYVHGGEYHAYNPDVVRTLQQAVQSGEYSDYQEYAKLVNERPASTLRDLLAIHPDGEAVTIDEVEPASELFKRFDTAAMSIGALSPEAHEALAEAMNSLGGNSNSGEGGEDPARYGTNKVSRIKQVASGRFGVTPAYLVNADVIQIKVAQGAKPGEGGQLPGDKVTPYIAKLRYSVPGVTLISPPPHHDIYSIEDLAQLIFDLKQVNPKAMISVKLVSEPGVGTIATGVAKAYADLITIAGYDGGTGASPLSSVKYAGCPWELGLVETQQALVANGLRHKIRLQVDGGLKTGVDIIKAAILGAESFGFGTGPMVALGCKYLRICHLNNCATGVATQDDKLRKNHYHGLPFKVTNYFEFIAREVRELMASLGVTRLVDLIGRTDLLKELEGFTAKQQKLALSRLLETAEPHPGKALYCTENNPPFDNGVLNAQLLQQAKPFVDARQSKTFWFDIRNTDRSVGASLSGYIAQTHGDQGLASDPIKAHFSGTAGQSFGVWNAGGVELYLTGDANDYVGKGMAGGLIAIRPPVGSAFLSHKASIIGNTCLYGATGGRLYAAGRAGERFGVRNSGAITVVEGIGDNGCEYMTGGIVCVLGKTGVNFGAGMTGGFAYVLDEDGEFRKRVNPELVEVLDVDSLAIHEEHLRGLITEHVQHTGSQRGEEILSRWSSFSTQFALVKPKSSDVKALLGHRSRSAAELRVQAQ | not soluble |
| MGSDKIHHHHHHMIDELRAMAIFAETIKQGSFRAAAKELKLSPSVVSYQVTQLEKSVGTALIYRSTRKLSLTSEGGVLYQYALNMIQAAQQGLNQVAIEKQELRGTLTLTLPSALIKSEISKKISQFSKLHPFLNFKLFYTDDRQDLIHQGIDLAFRAGSMDDSNLKSKRVGEINRKLVCSYDYWKENIPPISPQDLTTWNWIKLDMLPNHRTLVNSAGEKCDIDFESNISVNNVEAMTQLCINGAGIATPPDYLIEKEIENNALVELLPNWQVESIPLYAVWPSNVFQNSSVKRLLEFLI | not soluble |
| MALLPFFDLTNFESDASEELGWLKYVGRVQTRVFPQHFKDNLEKVRKISETIDVIVDTTAELGPEACVNLLNAGALAILVNEEMLNELADISPNRLVLKTDTTDIGKIEKLSQVAGSIQWIGSAENYPPDFFERASKIIHKAVMPEGGGRTLYLEFPEQPSMEVLKSFSVHSVVPVLSSSFLTVKPAEEPKKLSLADLILISANTDREDGLFSTLVVNELGIALGLVYSSKESVAESLKTGTGVYQSRKRGLWYKGASSGAVQHLIHIDVDCDEDCLRFVVYQTGKGFCHLDTLHCFGQASGLCQLEKTLIDRKNNAPEGSYTARLFSDPKLLRAKIMEEAEELCDATTKENVIWEMADLMYFAITRCVGSGVSLNDISRHLDLKHRKVTRRKGDAKVAWQEKLKDKGGVANTSYTA | soluble |
| MKKQPGQQPLRSLSLTSAAKSLEEVEPEDDSKKGEPHAKAAGFGRGGGGGKRLPAARSTPMVIPNQVAAMPVQMTGFVQLATNNILSAIAHTNSLMVVQCIEPLEIFTGFETPNRYVVHDMYCRPLLYCMERSNVFARQYHGNNRKLSASTLDSCRRCSPMRTLTLFTFQWTCRQS | soluble |
| MGSDKIHHHHHHMGHSLLFAVDVRPPHDVGVDGPRTASMCQNEVVADLKQRRPSVEQIIRIGIDTSKHVFQLHGVNAAEEPVLRKKLRRKEVVALFEKLSPTVVAIEACGGSHHWARLLQSFGHEVKLIPPQYVKPYVKRGKNDTADAEALCEAMSRPTMRFVPVKTAKQQAALMLVGLRDRLIRNRTQLANAIRGYAAEYGLIAARGMCKIEPLLERIAADKMLPDLARELFALHAKEYAQLQTQLKDVDAKLMAWHRAEACSQRLAQIPGVGPIGASLLVMKTPAPETFRSARHFAAWLGLTPKDHSTAGRVRLGVITRAGDEALRSVLVAGATAVIRHVRRGRGAVSPWLVDLLKRKPPKLAAVALANKIARIAWKLMVSGEIYGAKPMPPASARAA | not soluble |
| MRIGLFTDTYFPQVSGVATSIRTLKEELEKEGHEVYIFTTTDRDVKRFEDPTIIRLPSVPFVSFTDRRVVYRGLISSYKIAKHYNLDIIHTQTEFSLGLLGKMIGKALRIPVVHTYHTQYEDYVSYIANGKIIRPSMVKPLLRGYLKDLDGVICPSRIVLNLLEGYEVTIPKRVIPTGIPLEKYIRDDITAEEVTNLKAELGIAGDETMLLSLSRISYEKNIQAIINQMPAILAENAKIKLIIVGNGPYLQDLKHLAMQLEVDKHVTFTGMVPHDKVALYYKACDFFISASTSETQGLTYIESLASGTPIIAHGNPYLDDVVTDKMFGTLYYAETDLTDAIIDAILKTPVMDKRLLAKKRYEISAQHFGKSIYTFYLDTLIARNSKEAQKLSLYLNHSGKSSSLKLVQGAIHLPKRAAKVTAITSVKVVKAPIKLVHAIKDFLD | not soluble |
| MKDSKFPYYFSNALLMLVPRFVYRAQAKRLLSTLTEAEKQYCLERVNYYNKCGQPFTVDSREQSYAKIGEFKKTKGWTYFFDTRQVIRYFPSEFTFNYINGDVTHIPNVPSFIKSRPIHGDNQNSVVLKLNQIRHFKFVDDEMSYHDKKDMVAWRGVGFQPHRCKVIQAFYDHPRCNIGQTRPQEGQPWEKGFMSIEEQLQYKFLLCIEGNDVATNLKWAMSSNSLVIMSKPKYETWFMEGKLEAGIHYVEVQDDYSDLPEKMDYYLANEQEALAIIENAHQWVEQFKDKRKERLISLMVADKYFTLSHQQLEHHHHHH | soluble |
| MSEKTFLVEIGTEELPPKALRSLAESFAANFTAELDNAGLAHGTVQWFAAPRRLALKVANLAEAQPDREIEKRGPAIAQAFDAEGKPSKAAEGWARGCGITVDQAERLTTDKGEWLLYRAHVKGESTEALLPNMVATSLAKLPIPKLMRWGASDVHFVRPVHTVTLLLGDKVIPATILGIQSDRVIRGHRFMGEPEFTIDNADQYPEILRERGKVIADYEERKAKIKADAEEAARKIGGNADLSESLLEEVASLVEWPVVLTAKFEEKFLAVPAEALVYTMKGDQKYFPVYANDGKLLPNFIFVANIESKDPQQIISGNEKVVRPRLADAEFFFNTDRKKRLEDNLPRLQTVLFQQQLGTLRDKTDRIQALAGWIAEQIGADVNHATRAGLLSKCDLMTNMVFEFTDTQGVMGMHYARHDGEAEDVAVALNEQYQPRFAGDDLPSNPVACALAIADKMDTLAGIFGIGQHPKGDKDPFALRRAALGVLRIIVEKNLNLDLQTLTEEAVRLYGDKLTNANVVDDVIDFMLGRFRAWYQDEGYTVDTIQAVLARRPTRPADFDARMKAVSHFRTLEAAAALAAANKRVSNILAKSDEVLSDRVNASTLKEPEEIKLAMQVVVLRDKLEPYFAEGRYQDALVELAELREPVDAFFDKVMVMVDDKELRLNRLTMLEKLRELFLRVADISLLQ | not soluble |
| MFSKKKDKFMVQLEEMVFNLDRAAIEFGKMDFNTHLDLKAYSDNIKTYESHGDELMHQVISDLNQTFITPIEREDILSLCNAIDDVLDAMEETSAMFEMYSIEYTDEYMAEFVENIQKAVAEMKLAVGLLVDKKLSHMRIHSINIKEFETNCDGILRQSMKHIFNSETDPITLIKIKDIYQSMEEIADKCQAVANNFETIIMKNSLEHHHHHH | soluble |
| MKLTPEMLTGKSREHLVNLPTTHSSNHFLQTQAVQAFQALQQSAAKNGFNLQPASSFRDFERQQLIWNSKFKGERKVHDDAGKALDLNQLDDWQKCQAILRWSALLRLVVIIGERKWIFLILIFCHEVNLYNWSLGNMKKAATSLN | not soluble |
| MGSDKIHHHHHHMQIVACYSNKGGVGKTATAVNLAYAFATSGRRTLLCDLDPQGASGFYFRVKPSKKLTEARFFEDVEHFTKSIRGSDYDNLDILPANMSFRDFDVFLSKMKDARSRLKKALKAVKGDYDIVLLDCPPNISILSENIFRAADAVVTPVIPTTLSQRTFEQLLEFFREHDLPMEKIHAFFSMIQGTKTLHGEMIVELTHNYPKRIMAAKIPFASEIERMGVVRAPVLATAPDSPAGKAYQALFDELLERIVP | not soluble |
| MSLDIHDILVIDDSRLQRQHAMDLCRQLGIASVREAPDGERGLTLMRVQMPDLLLLDLEMPKQDGVQVMQEMARAGLSSPVIITSGKDYLLISTVELMGRELGLPVLGCLQKPLQLPALLDLMHRVWTPAERPDDAPLAADEVRVALEKGQIIPYYQPKVNLADGRVKGAEMLARWQHPDLGLIPPSRFIPVIEDNGWATELTMLMLRQGLTQWQEWARHGLRLPLSVNLSALSLRGDELVDEIECYVRGSHVPARFIIFEVTETAIVDNLAQAIGCAVRLRLAGLGLSIDDFGTGFATLQQLTRFPFTELKIDQSLVTGISDKPHLQAVFNSIIEMARRLQLATVAEGIETAEDYQLMAERGCQLGQGYYFARPLPAAAFLEWTRQPPVLPTAGEGHHHHHH | not soluble |
| MSLPINDQRFNGEDWINNPFFNLLSQHYLLANEHMNSLLENMEYGDENLAKRVRFFTRQYLDALSPANFIHTNPQLMAETLQSHGKNLLRGLHNLLSDVEAGSSRLIIKMTDTEAFKIGENLATTPGKVIFRNSMMELIQYCPRTTKAKSIPLLIVPPWINKYYILDLSPHNSLIRWLVEQGITVFIISWVNPDEEGHHHHHH | not soluble |
| MHRGGQPLKKRRGSFKMAELDQLPDESSSAKALVSLKEGSLSNTWNEKYSSLQKTPVWKGRNTSSAVEMPFRNSKRSRLFSDEDDRQINTRSPKRNQRVAMVPQKFTATMSTPDKKASQKIGFRLRNLLKLPKAHKWCIYEWFYSNIDKPLFEGDNDFCVCLKESFPNLKTRKLTRVEWGKIRRLMGKPRRCSSAFFEEERSALKQKRQKIRLLQQRKVADVSQFKDLPDEIPLPLVIGTKVTARLRGVHDGLFTGQIDAVDTLNATYRVTFDRTGLGTHTIPDYEVLSNEPHETMPIAAFGQKQRPSRFFMTPPRLHYTPPLQSPIIDNDPLLGQSPWRSKISGSDTETLGGFPVEFLIQVTRLSKILMIKKEHIKKLREMNTEAEKLKSYSMPISIEFQRRYATIVLELEQLNKDLNKVLHKVQQYCYELAPDQGLQPADQPTDMRRRCEEEAQEIVRHANSSTGQPCVENENLTDLISRLTAILLQIKCLAEGGDLNSFEFKSLTDSLNDIKSTIDASNISCFQNNVEIHVAHIQSGLSQMGNLHAFAANNTNRD | soluble |
| MSLKKNVYFLLALLLIGLSACDNAPKFKVQGEINGAEDKMLYLEASGLDGIVALDSAKLGSSGSFSFAQKRPESPEFYRLRLDNKVINFAVDSTETVSVKAEINDFATAYRIEGSENNLKIKELVLLQADLQKNVDKLGQNRNIPAGIAQDSLLAMVNNYKNKVKREYIFAAPNMPYAYFALFQSLNGYMIFDPLTNKEDVKCFAAVATSLNNAYPHADRSRNLYNMVIKGMKNTRTPRQQTMEIPEDKIKEASIIDIQLKDLKGNTRSLTDLKGKVVLIDFTVYNNAMSAAHNLALRELYNKYASQGFEIYQISLDGDEHFWKTSADNLPWVCVRDANGAYSSYISLYNVTNLPSVFLVNRNNELSARGENIKDLDEAIKKLLEGHHHHHH | not soluble |
